Assays:
[1] = molecular target: T1, pGBTE2Fb-Rb: GAL4 DNA-binding domain fusion of AtE2Fb amino acids 1-385 (lacking the Rb-binding domain) (Arabidopsis); assay: yeast two-hybrid, growth on His- minimal medium; legend: -, no interaction
T1 construct: also called E2F3 N-terminal; E2Fb (=E2F3) N-terminal domain

[2] = molecular target: T2, pGBTE2Fa226-356: GAL4 DNA-binding domain fusion of AtE2Fa amino acids 226-356 (Arabidopsis); assay: as above
T2 construct: also called E2F5 dimerisation domain; E2Fa (=E2F5) dimerization domain

[3] = molecular target: T3, empty pGBT9 (GAL4 DNA-binding domain alone) (UniProt P04386 1-147); assay: yeast two-hybrid, growth on His- minimal medium; empty bait vector control; legend: -, no interaction
T3 construct: empty bait vector, control for specificity; also called pBGT9
Procedure: (§1) Different combinations between bait (pGBTE2Fa226-356, pGBTE2Fb-Rb, or pGBTE2Fb 1-127, SEQ ID NO:207) and prey constructs were transformed into yeast cells and assayed for their ability to grow on His⁻ minimal media after 3 days of incubation at 30° C. Bait plasmids co-transformed with empty pAD-GAL424 and prey plasmids co-transformed with empty pGBT9 were assessed along as controls for the specificity of the interaction.
(§2) Different combinations between AtE2Fs bait and AtDPs prey constructs were tested for growth on His minimal media. −, no interaction; +, positive interaction; NT, not tested.

[4] = molecular target: T1, pGBTE2Fb-Rb: GAL4 DNA-binding domain …; assay: yeast two-hybrid, growth on His- minimal medium; legend: +, positive interaction
Procedure: as §1, §2

[5] = molecular target: T2, pGBTE2Fa226-356: GAL4 DNA-binding …; assay: as above
Procedure: as §1, §2

[6] = molecular target: T4, HA-tagged wild-type AtE2Fb, in vitro translated (Arabidopsis, UniProt Q9FV71 1-469); assay: co-immunoprecipitation (anti-c-myc) of in vitro co-translated tagged proteins, SDS-PAGE autoradiography
T4 construct: wild-type (whole) protein; also called HA-AtE2Fb; E2F3
Procedure: In vitro transcription and translation experiments were performed using the TNT T7-coupled wheat germ extract kit (Promega) primed with appropriate plasmids for 90 min at 30° C. For immunoprecipitation, 10 μl of the total in vitro translated extract (50 μl) was diluted at 1:5 in Nonidet P40 buffer (50 mM Tris, pH 7.4, 150 mM NaCl, 1% Nonidet P40, 1 mM phenylmethylsulfonyl fluoride, 10 μg/ml leupeptin/aprotinin/pepstatin) and incubated for 2 h at 4° C. with anti-c-myc (9E10; BabCo) or anti-HA (16B12; BabCo) antibodies. Protein-A-Sepharose (40 μl 25% (v/v)) was added and incubated for 1 h at 4° C., then the beads were washed four times with Nonidet P40 buffer. Immune complexes were eluted with 10 μl […] sodium dodecyl sulfate (SDS) sample buffer and analyzed by 10% or 15% SDS-PAGE and by autoradiography.
Similar results were obtained by two-hybrid analysis (see Table 5 of Example 12). To test whether the structural requirements for heterodimerization of the AtDPs were similar to those of their animal homologs, several deletion mutants of AtDPa and AtDPb were constructed (for a schematic illustration, see FIGS. 52 and 53), tagged with the c-myc epitope (FIGS. 54 and 55, panels A). The interactions between the mutant AtDPs and AtE2Fb were analyzed in immunoprecipitation experiments with the specific anti-HA or anti-c-myc antibodies ([…], panels B and C, respectively). […]

[7] = molecular target: T5, pGBT DPa 1-292: GAL4 DNA-binding domain fusion of AtDPa 1-292 (Arabidopsis thaliana); assay: yeast two-hybrid, growth on His- minimal medium; legend: -, no interaction
T5 construct: its construction is not described

T4 sequence (Q9FV71 1-469, tags or fused parts left off): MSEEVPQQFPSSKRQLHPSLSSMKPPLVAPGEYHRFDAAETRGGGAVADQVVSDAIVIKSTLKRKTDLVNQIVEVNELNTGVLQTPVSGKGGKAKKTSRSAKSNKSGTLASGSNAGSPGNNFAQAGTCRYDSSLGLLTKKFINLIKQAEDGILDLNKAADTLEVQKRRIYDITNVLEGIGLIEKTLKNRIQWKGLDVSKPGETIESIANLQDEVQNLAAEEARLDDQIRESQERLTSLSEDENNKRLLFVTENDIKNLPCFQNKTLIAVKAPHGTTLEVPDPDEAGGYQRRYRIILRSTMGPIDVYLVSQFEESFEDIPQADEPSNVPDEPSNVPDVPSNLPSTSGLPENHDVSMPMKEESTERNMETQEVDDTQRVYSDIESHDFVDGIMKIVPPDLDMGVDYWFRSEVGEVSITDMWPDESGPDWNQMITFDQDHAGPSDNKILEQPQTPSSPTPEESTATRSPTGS

B1: GAL4 transactivation domain fusion of AtDPa 42-142 (prey in pAD-GAL424) (other, not shown: large carriers)
chain: EKKGQSRTSGGGLRQFSVMVCQKLEAKKITTYKEVADEIISDFATIKQNAEKPLNENEYNEKNIRRRVYDALNVFMALDIIARDKKEIRWKGLPITCKKDV
[1]
  binding result: no binding
[2]
  binding result: no binding
[3]
  binding result: no binding

B2: GAL4 transactivation domain fusion of AtDPb 182-263 (prey in pAD-GAL424) (other, not shown: large carriers)
chain: GLPRTSLSDIEELKNERLSLRNRIEKKTAYSQELEEQYVGLQNLIQRNEHLYSSGNAPSGGVALPFILVQTRPHATVEVEI
[4]
  binding result: binds
[5]
  binding result: binds
[3]
  binding result: no binding

B3: GAL4 transactivation domain fusion of AtDPa 1-142 (prey in pAD-GAL424) (other, not shown: large carriers)
chain: MSMEMELFVTPEKQRQHPSVSVEKTPVRRKLIVDDDSEIGSEKKGQSRTSGGGLRQFSVMVCQKLEAKKITTYKEVADEIISDFATIKQNAEKPLNENEYNEKNIRRRVYDALNVFMALDIIARDKKEIRWKGLPITCKKDV
[1]
  binding result: no binding
[2]
  binding result: no binding
[3]
  binding result: no binding

B4: c-myc-tagged AtDPb 1-193, in vitro translated (other)
chain: EQKLISEEDLEQKLISEEDLMTTTGSNSNHNHHESNNNNNNPSTRSWGTAVSGQSVSTSGSMGSPSSRSEQTITVVTSTSDTTFQRLNNLDIQGDDAGSQGASGVKKKKRGQRAAGPDKTGRGLRQFSMKVCEKVESKGRTTYNEVADELVAEFALPNNDGTSPDQQQYDEKNIRRRVYDALNVLMAMDIISKDKKEIQWRGLPRTSLSDIEE
notes: also called c-myc-AtDPb 1-193
[6]
  binding result: no binding

B5: GAL4 transactivation domain fusion of AtDPa 121-292 (prey in pAD-GAL424) (other, not shown: large carriers)
chain: IIARDKKEIRWKGLPITCKKDVEEVKMDRNKVMSSVQKKAAFLKELREKVSSLESLMSRNQEMVVKTQGPAEGFTLPFILLETNPHAVVEIEISEDMQLVHLDFNSTPFSVHDDAYILKLMQEQKQEQNRVSSSSSTHHQSQHSSAHSSSSSCIASGTSGPVCWNSGSIDTR
[4]
  binding result: binds
[5]
  binding result: binds

B6: GAL4 transactivation domain fusion of AtDPa 1-292 (prey in pAD-GAL424) (other, not shown: large carriers)
chain: MSMEMELFVTPEKQRQHPSVSVEKTPVRRKLIVDDDSEIGSEKKGQSRTSGGGLRQFSVMVCQKLEAKKITTYKEVADEIISDFATIKQNAEKPLNENEYNEKNIRRRVYDALNVFMALDIIARDKKEIRWKGLPITCKKDVEEVKMDRNKVMSSVQKKAAFLKELREKVSSLESLMSRNQEMVVKTQGPAEGFTLPFILLETNPHAVVEIEISEDMQLVHLDFNSTPFSVHDDAYILKLMQEQKQEQNRVSSSSSTHHQSQHSSAHSSSSSCIASGTSGPVCWNSGSIDTR
notes: also called full-length AtDPa prey
[7]
  binding result: no binding
[4]
  binding result: binds

B7: GAL4 transactivation domain fusion of AtDPa 42-292 (prey in pAD-GAL424) (other, not shown: large carriers)
chain: EKKGQSRTSGGGLRQFSVMVCQKLEAKKITTYKEVADEIISDFATIKQNAEKPLNENEYNEKNIRRRVYDALNVFMALDIIARDKKEIRWKGLPITCKKDVEEVKMDRNKVMSSVQKKAAFLKELREKVSSLESLMSRNQEMVVKTQGPAEGFTLPFILLETNPHAVVEIEISEDMQLVHLDFNSTPFSVHDDAYILKLMQEQKQEQNRVSSSSSTHHQSQHSSAHSSSSSCIASGTSGPVCWNSGSIDTR
[4]
  binding result: binds
[5]
  binding result: binds

B8: GAL4 transactivation domain fusion of AtDPa 121-213 (prey in pAD-GAL424) (other, not shown: large carriers)
chain: IIARDKKEIRWKGLPITCKKDVEEVKMDRNKVMSSVQKKAAFLKELREKVSSLESLMSRNQEMVVKTQGPAEGFTLPFILLETNPHAVVEIEI
[1]
  binding result: no binding
[2]
  binding result: no binding
[3]
  binding result: no binding

B9: GAL4 transactivation domain fusion of AtDPa 172-292 (prey in pAD-GAL424) (other, not shown: large carriers)
chain: SLESLMSRNQEMVVKTQGPAEGFTLPFILLETNPHAVVEIEISEDMQLVHLDFNSTPFSVHDDAYILKLMQEQKQEQNRVSSSSSTHHQSQHSSAHSSSSSCIASGTSGPVCWNSGSIDTR
[1]
  binding result: no binding
[2]
  binding result: no binding
[3]
  binding result: no binding

B10: GAL4 transactivation domain fusion of AtDPb 182-385 (prey in pAD-GAL424) (other, not shown: large carriers)
chain: GLPRTSLSDIEELKNERLSLRNRIEKKTAYSQELEEQYVGLQNLIQRNEHLYSSGNAPSGGVALPFILVQTRPHATVEVEISEDMQLVHFDFNSTPFELHDDNFVLKTMKFCDQPPQQPNGRNNSQLVCHNFTPENPNKGPSTGPTPQLDMYETHLQSQQHQQHSQLQIIPMPETNNVTSSADTAPVKSPSLPGIMNSSMKPEN
[4]
  binding result: binds
[5]
  binding result: binds

B11: GAL4 transactivation domain fusion of AtDPb 1-193 (prey in pAD-GAL424) (other, not shown: large carriers)
chain: MTTTGSNSNHNHHESNNNNNNPSTRSWGTAVSGQSVSTSGSMGSPSSRSEQTITVVTSTSDTTFQRLNNLDIQGDDAGSQGASGVKKKKRGQRAAGPDKTGRGLRQFSMKVCEKVESKGRTTYNEVADELVAEFALPNNDGTSPDQQQYDEKNIRRRVYDALNVLMAMDIISKDKKEIQWRGLPRTSLSDIEE
[1]
  binding result: no binding
[2]
  binding result: no binding

B12: c-myc-tagged AtDPa 1-142, in vitro translated (other)
chain: EQKLISEEDLEQKLISEEDLMSMEMELFVTPEKQRQHPSVSVEKTPVRRKLIVDDDSEIGSEKKGQSRTSGGGLRQFSVMVCQKLEAKKITTYKEVADEIISDFATIKQNAEKPLNENEYNEKNIRRRVYDALNVFMALDIIARDKKEIRWKGLPITCKKDV
notes: also called c-myc-AtDPa 1-142
[6]
  binding result: no binding
